Laboratory results published in patent US20260250322A1, “NEW PEPTIDES AS SELECTIVE IL-23 RECEPTOR INHIBITORS” (SANOFI, priority 2023, published 2026).
Numbered stars: 1 amine (or outer) side, 2 acyl side, 3 side chain; on linkers, the order of the positions; unused ones are H or OH. Bridge positions count the residues as written; N and C are the ends. Square brackets hold non-standard residues; d marks the D form. Tyr(Me) = Yme = 4-methoxy-L-phenylalanine (O-methyl-tyrosine), COc1ccc(C[C@H](N[*:1])C(=O)[*:2])cc1; Trp(1-Me) = Cn1cc(C[C@H](N)C(=O)O)c2ccccc21; dAla(4-thiazolyl) = N[C@H](Cc1cscn1)C(=O)O; 1Nal = N[C@@H](Cc1cccc2ccccc12)C(=O)O; 2Nal = N[C@@H](Cc1ccc2ccccc2c1)C(=O)O; Cit = NC(=O)NCCC[C@H](N)C(=O)O; αMeL = CC(C)C[C@](C)(N)C(=O)O; Orn = NCCC[C@H](N)C(=O)O; Aib = CC(C)(N)C(=O)O

T1: IL-23 receptor on the surface of HEK-Blue IL-23 cells (UniProt Q5VWK5 24-629, limits assumed)
T1 sequence (looked up): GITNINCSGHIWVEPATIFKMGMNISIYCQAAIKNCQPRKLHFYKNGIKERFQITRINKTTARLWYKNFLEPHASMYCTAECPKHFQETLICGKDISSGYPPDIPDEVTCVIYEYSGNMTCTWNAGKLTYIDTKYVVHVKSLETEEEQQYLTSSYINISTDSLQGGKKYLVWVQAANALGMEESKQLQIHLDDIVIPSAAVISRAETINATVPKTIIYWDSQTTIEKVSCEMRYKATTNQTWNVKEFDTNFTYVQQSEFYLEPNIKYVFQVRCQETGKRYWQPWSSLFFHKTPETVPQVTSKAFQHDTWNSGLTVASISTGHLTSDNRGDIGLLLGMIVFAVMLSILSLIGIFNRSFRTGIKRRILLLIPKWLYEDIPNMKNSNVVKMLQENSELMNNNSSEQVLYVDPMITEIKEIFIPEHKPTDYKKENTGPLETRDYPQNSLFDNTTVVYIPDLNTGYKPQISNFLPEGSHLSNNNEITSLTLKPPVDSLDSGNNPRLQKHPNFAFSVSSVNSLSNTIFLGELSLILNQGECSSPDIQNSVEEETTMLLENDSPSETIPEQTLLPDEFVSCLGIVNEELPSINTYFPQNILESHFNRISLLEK


What follows are binders tested against T1, IL-23 receptor on the surface of … (assay: cell-based or functional assay).

Binder	Inhibition of IL-23 induced pSTAT3 (IC50 nM) [nM]
Ac-[dK]NTWQL[Tyr(Me)][2Nal][Aib]DNN-NH2 (lactam 1-10; SMILES COc1ccc(C[C@@H]2NC(=O)[C@H](CC(C)C)NC(=O)[C@H](CCC(N)=O)NC(=O)[C@H](Cc3c[nH]c4ccccc34)NC(=O)[C@H]([C@@H](C)O)NC(=O)[C@H](CC(N)=O)NC(=O)[C@H](NC(C)=O)CCCCNC(=O)C[C@@H](C(=O)N[C@@H](CC(N)=O)C(=O)N[C@@H](CC(N)=O)C(N)=O)NC(=O)C(C)(C)NC(=O)[C@H](Cc3ccc4ccccc4c3)NC2=O)cc1) [peptide compound SEQ ID NO: 1]	334
Ac-[dK]NT[Trp(1-Me)]QR[Tyr(Me)][2Nal]K(Ac)DNN-NH2 (lactam 1-10; SMILES COc1ccc(C[C@@H]2NC(=O)[C@H](CCCNC(=N)N)NC(=O)[C@H](CCC(N)=O)NC(=O)[C@H](Cc3cn(C)c4ccccc34)NC(=O)[C@H]([C@@H](C)O)NC(=O)[C@H](CC(N)=O)NC(=O)[C@H](NC(C)=O)CCCCNC(=O)C[C@@H](C(=O)N[C@@H](CC(N)=O)C(=O)N[C@@H](CC(N)=O)C(N)=O)NC(=O)[C@H](CCCCNC(C)=O)NC(=O)[C@H](Cc3ccc4ccccc4c3)NC2=O)cc1) [peptide compound SEQ ID NO: 10]	1440
Ac-[dD]NTWQR[Tyr(Me)][2Nal][Aib]KNN-NH2 (lactam 1-10; SMILES COc1ccc(C[C@@H]2NC(=O)[C@H](CCCNC(=N)N)NC(=O)[C@H](CCC(N)=O)NC(=O)[C@H](Cc3c[nH]c4ccccc34)NC(=O)[C@H]([C@@H](C)O)NC(=O)[C@H](CC(N)=O)NC(=O)[C@H](NC(C)=O)CC(=O)NCCCC[C@@H](C(=O)N[C@@H](CC(N)=O)C(=O)N[C@@H](CC(N)=O)C(N)=O)NC(=O)C(C)(C)NC(=O)[C@H](Cc3ccc4ccccc4c3)NC2=O)cc1) [peptide compound SEQ ID NO: 12]	6590
Ac-[dD]NTWQR[Tyr(Me)][2Nal][Aib][Orn]NN-NH2 (lactam 1-10; SMILES COc1ccc(C[C@@H]2NC(=O)[C@H](CCCNC(=N)N)NC(=O)[C@H](CCC(N)=O)NC(=O)[C@H](Cc3c[nH]c4ccccc34)NC(=O)[C@H]([C@@H](C)O)NC(=O)[C@H](CC(N)=O)NC(=O)[C@H](NC(C)=O)CC(=O)NCCC[C@@H](C(=O)N[C@@H](CC(N)=O)C(=O)N[C@@H](CC(N)=O)C(N)=O)NC(=O)C(C)(C)NC(=O)[C@H](Cc3ccc4ccccc4c3)NC2=O)cc1) [peptide compound SEQ ID NO: 13]	1150
Ac-[dK]NTWQR[Tyr(Me)][2Nal][Aib]DNN-NH2 (lactam 1-10; SMILES COc1ccc(C[C@@H]2NC(=O)[C@H](CCCNC(=N)N)NC(=O)[C@H](CCC(N)=O)NC(=O)[C@H](Cc3c[nH]c4ccccc34)NC(=O)[C@H]([C@@H](C)O)NC(=O)[C@H](CC(N)=O)NC(=O)[C@H](NC(C)=O)CCCCNC(=O)C[C@@H](C(=O)N[C@@H](CC(N)=O)C(=O)N[C@@H](CC(N)=O)C(N)=O)NC(=O)C(C)(C)NC(=O)[C@H](Cc3ccc4ccccc4c3)NC2=O)cc1) [peptide compound SEQ ID NO: 15]	426
Ac-[dK]NTWQA[Tyr(Me)][2Nal][Aib]DNN-NH2 (lactam 1-10; SMILES COc1ccc(C[C@@H]2NC(=O)[C@H](C)NC(=O)[C@H](CCC(N)=O)NC(=O)[C@H](Cc3c[nH]c4ccccc34)NC(=O)[C@H]([C@@H](C)O)NC(=O)[C@H](CC(N)=O)NC(=O)[C@H](NC(C)=O)CCCCNC(=O)C[C@@H](C(=O)N[C@@H](CC(N)=O)C(=O)N[C@@H](CC(N)=O)C(N)=O)NC(=O)C(C)(C)NC(=O)[C@H](Cc3ccc4ccccc4c3)NC2=O)cc1) [peptide compound SEQ ID NO: 2]	234
Ac-[dK]NTWQV[Tyr(Me)][1Nal][Aib]DNN-NH2 (lactam 1-10; SMILES COc1ccc(C[C@@H]2NC(=O)[C@H](C(C)C)NC(=O)[C@H](CCC(N)=O)NC(=O)[C@H](Cc3c[nH]c4ccccc34)NC(=O)[C@H]([C@@H](C)O)NC(=O)[C@H](CC(N)=O)NC(=O)[C@H](NC(C)=O)CCCCNC(=O)C[C@@H](C(=O)N[C@@H](CC(N)=O)C(=O)N[C@@H](CC(N)=O)C(N)=O)NC(=O)C(C)(C)NC(=O)[C@H](Cc3cccc4ccccc34)NC2=O)cc1) [peptide compound SEQ ID NO: 20]	10000
Ac-[dK]NTWQ[Aib][Tyr(Me)][1Nal][Aib]DNN-NH2 (lactam 1-10; SMILES COc1ccc(C[C@@H]2NC(=O)C(C)(C)NC(=O)[C@H](CCC(N)=O)NC(=O)[C@H](Cc3c[nH]c4ccccc34)NC(=O)[C@H]([C@@H](C)O)NC(=O)[C@H](CC(N)=O)NC(=O)[C@H](NC(C)=O)CCCCNC(=O)C[C@@H](C(=O)N[C@@H](CC(N)=O)C(=O)N[C@@H](CC(N)=O)C(N)=O)NC(=O)C(C)(C)NC(=O)[C@H](Cc3cccc4ccccc34)NC2=O)cc1) [peptide compound SEQ ID NO: 21]	7500
Ac-[dK]NT[Trp(1-Me)]QR[Tyr(Me)][1Nal][αMeL]DNN-NH2 (lactam 1-10; SMILES COc1ccc(C[C@@H]2NC(=O)[C@H](CCCNC(=N)N)NC(=O)[C@H](CCC(N)=O)NC(=O)[C@H](Cc3cn(C)c4ccccc34)NC(=O)[C@H]([C@@H](C)O)NC(=O)[C@H](CC(N)=O)NC(=O)[C@H](NC(C)=O)CCCCNC(=O)C[C@@H](C(=O)N[C@@H](CC(N)=O)C(=O)N[C@@H](CC(N)=O)C(N)=O)NC(=O)[C@](C)(CC(C)C)NC(=O)[C@H](Cc3cccc4ccccc34)NC2=O)cc1) [peptide compound SEQ ID NO: 23]	1960
Ac-[dK]NT[Trp(1-Me)]QR[Tyr(Me)][2Nal][αMeL]DNN-NH2 (lactam 1-10; SMILES COc1ccc(C[C@@H]2NC(=O)[C@H](CCCNC(=N)N)NC(=O)[C@H](CCC(N)=O)NC(=O)[C@H](Cc3cn(C)c4ccccc34)NC(=O)[C@H]([C@@H](C)O)NC(=O)[C@H](CC(N)=O)NC(=O)[C@H](NC(C)=O)CCCCNC(=O)C[C@@H](C(=O)N[C@@H](CC(N)=O)C(=O)N[C@@H](CC(N)=O)C(N)=O)NC(=O)[C@](C)(CC(C)C)NC(=O)[C@H](Cc3ccc4ccccc4c3)NC2=O)cc1) [peptide IL-23 receptor inhibitor SEQ. ID NO. 24]	385
Ac-[dK]NT[Trp(1-Me)]QR[Tyr(Me)][2Nal][dAla(4-thiazolyl)]DNN-NH2 (lactam 1-10; SMILES COc1ccc(C[C@@H]2NC(=O)[C@H](CCCNC(=N)N)NC(=O)[C@H](CCC(N)=O)NC(=O)[C@H](Cc3cn(C)c4ccccc34)NC(=O)[C@H]([C@@H](C)O)NC(=O)[C@H](CC(N)=O)NC(=O)[C@H](NC(C)=O)CCCCNC(=O)C[C@@H](C(=O)N[C@@H](CC(N)=O)C(=O)N[C@@H](CC(N)=O)C(N)=O)NC(=O)[C@@H](Cc3cscn3)NC(=O)[C@H](Cc3ccc4ccccc4c3)NC2=O)cc1) [peptide compound SEQ ID NO: 25]	3830
Ac-[dK]NTWQR[Tyr(Me)][2Nal][Cit]DNN-NH2 (lactam 1-10; SMILES COc1ccc(C[C@@H]2NC(=O)[C@H](CCCNC(=N)N)NC(=O)[C@H](CCC(N)=O)NC(=O)[C@H](Cc3c[nH]c4ccccc34)NC(=O)[C@H]([C@@H](C)O)NC(=O)[C@H](CC(N)=O)NC(=O)[C@H](NC(C)=O)CCCCNC(=O)C[C@@H](C(=O)N[C@@H](CC(N)=O)C(=O)N[C@@H](CC(N)=O)C(N)=O)NC(=O)[C@H](CCCNC(N)=O)NC(=O)[C@H](Cc3ccc4ccccc4c3)NC2=O)cc1) [peptide compound SEQ ID NO: 29]	2720
Ac-[dK]NTWQV[Tyr(Me)][2Nal][Aib]DNN-NH2 (lactam 1-10; SMILES COc1ccc(C[C@@H]2NC(=O)[C@H](C(C)C)NC(=O)[C@H](CCC(N)=O)NC(=O)[C@H](Cc3c[nH]c4ccccc34)NC(=O)[C@H]([C@@H](C)O)NC(=O)[C@H](CC(N)=O)NC(=O)[C@H](NC(C)=O)CCCCNC(=O)C[C@@H](C(=O)N[C@@H](CC(N)=O)C(=O)N[C@@H](CC(N)=O)C(N)=O)NC(=O)C(C)(C)NC(=O)[C@H](Cc3ccc4ccccc4c3)NC2=O)cc1) [peptide compound SEQ ID NO: 31]	128
Ac-[dK]NTWQR[Tyr(Me)][2Nal][Aib]DNN-NH2 (lactam 1-10; SMILES COc1ccc(C[C@@H]2NC(=O)[C@H](CCCNC(=N)N)NC(=O)[C@H](CCC(N)=O)NC(=O)[C@H](Cc3c[nH]c4ccccc34)NC(=O)[C@H]([C@@H](C)O)NC(=O)[C@H](CC(N)=O)NC(=O)[C@H](NC(C)=O)CCCCNC(=O)C[C@@H](C(=O)N[C@@H](CC(N)=O)C(=O)N[C@@H](CC(N)=O)C(N)=O)NC(=O)C(C)(C)NC(=O)[C@H](Cc3ccc4ccccc4c3)NC2=O)cc1) [peptide compound SEQ ID NO: 3]	430
